Target: the molecule itself
Experiment: SEC-MALS

B1: Gemin5 TPR-like domain (residues 807-1097) (domain or fragment)
chain: TPVSSGFEKSKVTINNKVILLKKEPPKEKPETLIKKRKARSLLPLSTSLDHRSKEELHQDCLVLATAKHSRELNEDVSADVEERFHLGLFTDRATLYRMIDIEGKGHLENGHPELFHQLMLWKGDLKGVLQTAAERGELTDNLVAMAPAAGYHVWLWAVEAFAKQLCFQDQYVKAASHLLSIHKVYEAVELLKSNHFYREAIAIAKARLRPEDPVLKDLYLSWGTVLERDGHYAVAAKCYLGATCAYDAAKVLAKKGDAASLRTAAELAAIVGEDELSASLALRCAQELLL
Question: B1 was tested. Which “stoichiometry N” value did it give?
Answer: The value was 2.

From article doi:10.1101/654111 (bioRxiv, 2019)
